Bridge positions count the residues as written; N and C are the ends. Square brackets hold non-standard residues; d marks the D form. Ends that are not written are not given here. 2‑(7-octenyl)alanine = olefinic alpha-amino acid with 7-octenyl side chain, staple residue; 2‑(4-pentenyl)alanine = 2-(4-pentenyl)alanine
Key:
Assay type in all cases: physicochemical
[1] = Circular dichroism of Lacripep oleate salt vs acetate salt in citrate buffer (Example 3); details: CD, 0.2 mg/mL, 10 mM sodium citrate buffer pH 6.5, 35° C.
Protocol: Lacripep™ (SEQ ID NO:1) was synthesized either without or with N-terminal acetylation and C-terminal amidation as an acetate salt. The compounds were reconstituted in 10 mM sodium citrate buffer, pH 6.5 for circular dichroism. Lacripep™ synthesized either without or with N-terminal acetylation and C-terminal amidation as an acetate salt was converted to an oleate salt by dissolving 1 equivalent of the Lacripep™ acetate salt and 4 equivalents of oleic acid (one oleic acid per lysine residue in Lacripep™) in a mixture of water buffered with citric acid to pH 6.5. The resulting solutions were then flash frozen and lyophilized under vacuum to remove the more volatile acetic acid. The lyophilized powder is suspended in water and the pH is adjusted to between 6.2 to 6.8 with citric acid and sodium citrate and the osmolality to between 250 to 350 mOsm/kg. […]
CD spectra were obtained using the Jasco 810 CD/ORD with Fluorescence Monochrometer in a 1 mm quartz cell from Starna Cells, Inc. Spectra were obtained at 35° C. from 250 nm to 190 nm in continuous scanning mode (scanning speed, 100 nm/min; data pitch, 0.1 nm; bandwidth, 1 nm; response time, 4 s) with a nitrogen flow rate of 100 mL/min. […]

[2] = Circular dichroism of Lacripep acetate salt vs dodecylphosphocholine form in phosphate buffer (Example 2); details: CD, 0.2 mg/ml; for alpha helicity: 10 mM phosphate, 137 mM NaCl, 2.7 mM KCl buffer pH 7.4, 35° C., dpC forms with 10 mM dodecylphosphocholine; for irregular: phosphate buffer pH 7.4, 35° C., 10 mM dodecylphosphocholine
Protocol: Lacripep™ (SEQ ID NO:1) was synthesized either without (unmodified, KQFIENGSEFAQKLLKKFS) or with (modified, Ac-KQFIENGSEFAQKLLKKFS-NH2)N-terminal acetylation and C-terminal amidation as an acetate salt. The compounds (0.2 mg/ml) were reconstituted in 10 mM phosphate, 137 mM NaCl, 2.7 mM KCl buffer, pH 7.4 with 10 mM dodecylphosphocholine for circular dichroism. CD spectra were obtained using the Jasco 810 CD/ORD with Fluorescence Monochrometer in a 1 mm quartz cell from Starna Cells, Inc. Spectra were obtained at 35° C. from 250 nm to 190 nm in continuous scanning mode (scanning speed, 100 nm/min; data pitch, 0.1 nm; bandwidth, 1 nm; response time, 4 s) with a nitrogen flow rate of 100 mL/min. An average of 3 spectra were obtained for each sample (N=3). Analysis of the dichroism spectra can use methods known in the art, including, DichroWeb: On-line analysis for protein Circular Dichroism spectra; Whitmore, L. and Wallace, B. A. (2008) Biopolymers 89: 392-400; Whitmore, L. and Wallace, B. A. (2004) Nucleic Acids Research 32: W668-673, each of which is incorporated by reference herein in its entirety.

[3] = Circular dichroism of cysteine disulfide constrained Lacripep acetate salts in citrate buffer (Example 8); details: 10 mM sodium citrate buffer pH 6.5, 0.2 mg/mL, 35° C.; for helicity (CD spectra): absence of 10 mM DPC; for negative CD signal between 200 nm and 230 nm: presence of DPC (10 mM)
Protocol: (§1) Cysteine Disulfide Constrained Analogs of Lacripep™ (SEQ ID NO:1) were synthesized with N-terminal acetylation and C-terminal amidation as an acetate salt. The compounds were reconstituted in 10 mM sodium citrate buffer, pH 6.5 for circular dichroism, with or without 10 mM DPC. The resulting citric acid buffered solutions were tested for circular dichroism.
(§2) CD spectra were obtained using the Jasco 810 CD/ORD with Fluorescence Monochrometer in a 1 mm quartz cell from Starna Cells, Inc. Spectra were obtained at 35° C. from 250 nm to 190 nm in continuous scanning mode (scanning speed, 100 nm/min; data pitch, 0.1 nm; bandwidth, 1 nm; response time, 4 s) with a nitrogen flow rate of 100 mL/min. An average of 3 spectra were obtained for each sample (N=3).

[4] = Circular dichroism of alkene constrained (stapled) Lacripep acetate salts in citrate buffer (Example 7); details: 10 mM sodium citrate buffer pH 6.5, 0.2 mg/mL, 35° C.
Protocol: as §1, with “Alkene” for “Cysteine Disulfide”, “n-DodecylPhosphoCholine (DPC).” for “DPC.”
as §2

Work on “Ac-KQFIENGSEFAQKLLKKFS-NH2 [modified acetate salt form] (also: acetate salt) [Lacripep with N-terminal acetylation and C-terminal amidation, acetate salt]” yielded an alpha helicity [1] of 29% and an alpha helicity [2] of 28%.
For “Ac-KQF IEN GSE FAQ KC(S-)L KC(S-)F S-NH2 (Ac-KQFIENGSEFAQKCLKCFS-NH2; disulfide 14-17; SMILES CC[C@H](C)[C@H](NC(=O)[C@H](Cc1ccccc1)NC(=O)[C@H](CCC(N)=O)NC(=O)[C@H](CCCCN)NC(C)=O)C(=O)N[C@@H](CCC(=O)O)C(=O)N[C@@H](CC(N)=O)C(=O)NCC(=O)N[C@@H](CO)C(=O)N[C@@H](CCC(=O)O)C(=O)N[C@@H](Cc1ccccc1)C(=O)N[C@@H](C)C(=O)N[C@@H](CCC(N)=O)C(=O)N[C@@H](CCCCN)C(=O)N[C@H]1CSSC[C@@H](C(=O)N[C@@H](Cc2ccccc2)C(=O)N[C@@H](CO)C(N)=O)NC(=O)[C@H](CCCCN)NC(=O)[C@H](CC(C)C)NC1=O; listed as Homo sapiens) [SEQ ID NO: 69]”, the “helicity (CD spectra)” value [3] was “significant helicity” and the “negative CD signal between 200 nm and 230 nm” value [3] was −5 to −10 Δε.
In the case of “Ac-KQF IEN C(S-)SE C(S-)AQ KLL KKF S-NH2 (Ac-KQFIENCSECAQKLLKKFS-NH2; bridge 7-10; not fully specified (bridges); printed as Ac-KQF IEN C(S-)SE C(S-)AQ KLL KKF S-NH2; listed as Homo sapiens) [SEQ ID NO: 70]”, the “helicity (CD spectra)” value [3] is reported as “significant helicity”.
Work on “KQFIENGSEFAQKLLKKFS [unmodified acetate salt form] (not fully specified (N-terminus, C-terminus); also: acetate salt) [Lacripep without N-terminal acetylation and C-terminal amidation, acetate salt]” yielded an alpha helicity [1] of 28% and an alpha helicity [2] of 27%.
In the case of “Ac-KQF C(S-)EN C(S-)SE FAQ KLL KKF S-NH2 (Ac-KQFCENCSEFAQKLLKKFS-NH2; disulfide 4-7; SMILES CC(=O)N[C@@H](CCCCN)C(=O)N[C@@H](CCC(N)=O)C(=O)N[C@@H](Cc1ccccc1)C(=O)N[C@H]1CSSC[C@@H](C(=O)N[C@@H](CO)C(=O)N[C@@H](CCC(=O)O)C(=O)N[C@@H](Cc2ccccc2)C(=O)N[C@@H](C)C(=O)N[C@@H](CCC(N)=O)C(=O)N[C@@H](CCCCN)C(=O)N[C@@H](CC(C)C)C(=O)N[C@@H](CC(C)C)C(=O)N[C@@H](CCCCN)C(=O)N[C@@H](CCCCN)C(=O)N[C@@H](Cc2ccccc2)C(=O)N[C@@H](CO)C(N)=O)NC(=O)[C@H](CC(N)=O)NC(=O)[C@H](CCC(=O)O)NC1=O; listed as Homo sapiens) [SEQ ID NO: 72]”, the “helicity (CD spectra)” value [3] is reported as “significant helicity” and the “negative CD signal between 200 nm and 230 nm” value [3] is reported as −20 to −30 Δε.
For “Ac-KQ [2-(7-octenyl) alanine]-IENGSE-[2-(4-pentenyl) alanine]-AQKLLKKFS-NH2 (Ac-KQ[2‑(7-octenyl)alanine]IENGSE[2‑(4-pentenyl)alanine]AQKLLKKFS-NH2; staple 3-10; listed as Homo sapiens) [SEQ ID NO: 59]”, the “negative CD signal between 200 nm and 230 nm” value ([4]; presence of 10 mM DPC) was “approximately −50 Δε”.
“Ac-KQFIENGSEFAQKLLKKFS-NH2 [modified dpC form] (also: dpC form) [terminally modified Lacripep constrained with 10 mM dodecylphosphocholine]” gave an alpha helicity [2] of 100% and an irregular [2] of 0%.
In the case of “Ac-KQFIENGSEFAQKLLKKFS-NH2 (listed as Homo sapiens) [Lacripep]”, the “helicity (CD spectra)” value ([4]; absence of 10 mM DPC) is reported as “little helicity” and the “helicity (CD spectra)” value [3] is reported as “significant helicity”.
“KQFIENGSEFAQKLLKKFS [unmodified dpC form] (not fully specified (N-terminus, C-terminus)) [unmodified Lacripep constrained with 10 mM dodecylphosphocholine]” gave an alpha helicity [2] of 92% and an irregular [2] of 8%.

Source: patent publication US20240294573A1, “CONSTRAINED PEPTIDES” (TearSolutions, Inc., priority 2019, published 2024)
